Assay in all cases: SPR (Biacore)
In general terms: In SPR one partner is held on a chip, and binding of the other changes the refractive index at the surface.

Assay [1] has as its target T1, human FcγRIIb receptor protein (R&D Systems) (human, UniProt P31994 46-217).
T1 construct: Analyte injected over antibodies captured on a protein A/G chip (Biacore); also called CD32b
T1 sequence (looked up): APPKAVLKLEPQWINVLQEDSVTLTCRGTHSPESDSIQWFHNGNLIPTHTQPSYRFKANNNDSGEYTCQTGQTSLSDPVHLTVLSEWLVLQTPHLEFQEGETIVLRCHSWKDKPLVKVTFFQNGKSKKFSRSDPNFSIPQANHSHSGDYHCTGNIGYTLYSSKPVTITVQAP

In assay [2] the target is T2, FcγRIIaR (human, UniProt P12318).
T2 construct: recombinant receptor protein with 6xHis and GST tags; also called R131 FcγRIIa
T2 sequence (receptor, looked up): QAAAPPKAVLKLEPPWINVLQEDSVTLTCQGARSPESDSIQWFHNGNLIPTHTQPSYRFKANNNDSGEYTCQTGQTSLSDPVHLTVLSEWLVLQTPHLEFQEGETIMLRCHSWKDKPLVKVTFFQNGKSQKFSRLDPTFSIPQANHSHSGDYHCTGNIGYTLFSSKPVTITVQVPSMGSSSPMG

The target of assay [3] is T3, human V158 FcγRIIIa receptor protein (6xHis and GST tags) (human, UniProt P08637 17-208, limits assumed).
T3 construct: also called VIIIa

In assay [4] the target is T4, human FcγRI receptor protein (R&D Systems) (human, UniProt P12314 16-288).
T4 construct: also called CD64
T4 sequence (P12314 16-288 limits assumed): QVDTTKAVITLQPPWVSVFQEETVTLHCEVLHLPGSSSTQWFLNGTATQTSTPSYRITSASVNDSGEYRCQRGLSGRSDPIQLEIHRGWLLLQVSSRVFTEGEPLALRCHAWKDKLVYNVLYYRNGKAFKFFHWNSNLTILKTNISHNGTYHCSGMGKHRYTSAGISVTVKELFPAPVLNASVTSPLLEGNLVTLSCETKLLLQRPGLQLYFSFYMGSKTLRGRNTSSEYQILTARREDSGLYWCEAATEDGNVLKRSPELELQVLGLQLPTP

Positions count from the first letter of the chain named. Names and notes keep the numbering of the source.

B1: G237N/S267E (antibody, human IgG1, kappa)
heavy: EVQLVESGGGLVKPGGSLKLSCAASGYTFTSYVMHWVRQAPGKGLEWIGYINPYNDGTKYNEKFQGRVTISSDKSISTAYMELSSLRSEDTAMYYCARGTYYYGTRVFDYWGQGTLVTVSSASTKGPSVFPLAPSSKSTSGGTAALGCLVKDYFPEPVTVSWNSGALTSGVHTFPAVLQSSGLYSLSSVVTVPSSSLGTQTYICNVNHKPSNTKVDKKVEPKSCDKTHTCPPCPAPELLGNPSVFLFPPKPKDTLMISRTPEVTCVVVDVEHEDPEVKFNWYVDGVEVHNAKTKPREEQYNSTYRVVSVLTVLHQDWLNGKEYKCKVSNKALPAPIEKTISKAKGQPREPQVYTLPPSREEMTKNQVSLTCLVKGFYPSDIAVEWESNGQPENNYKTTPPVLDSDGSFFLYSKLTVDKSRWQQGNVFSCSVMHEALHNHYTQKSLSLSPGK
light: DIVMTQSPATLSLSPGERATLSCRSSKSLQNVNGNTYLYWFQQKPGQSPQLLIYRMSNLNSGVPDRFSGSGSGTEFTLTISSLEPEDFAVYYCMQHLEYPITFGAGTKLEIKRTVAAPSVFIFPPSDEQLKSGTASVVCLLNNFYPREAKVQWKVDNALQSGNSQESVTEQDSKDSTYSLSSTLTLSKADYEKHKVYACEVTHQGLSSPVTKSFNRGEC
notes: HuAM4G7 IgG1 Fc variant
Take B1: in assay [1], the “Fold FcγRIIb” value came to 40.5 fold. In addition, in assay [2], the “Fold FcγRIIaR” value came out at 61.5 fold. Also, the binding result in assay [3] is recorded as “no binding”. The “Fold FcγRI” value in assay [4] stood at 0.101 fold.

B2: H268N (antibody, human IgG1, kappa)
heavy: not shown
light: B1 light
notes: HuAM4G7 IgG1 Fc variant
For the molecule B2, the “Fold FcγRIIb” value in assay [1] was found to be 1.17 fold. For the same molecule, the “Fold FcγRIIaR” value in assay [2] was found to be 1.79 fold.

B3: L234W/G236D/S239E/S267E (antibody, human IgG1, kappa)
heavy: EVQLVESGGGLVKPGGSLKLSCAASGYTFTSYVMHWVRQAPGKGLEWIGYINPYNDGTKYNEKFQGRVTISSDKSISTAYMELSSLRSEDTAMYYCARGTYYYGTRVFDYWGQGTLVTVSSASTKGPSVFPLAPSSKSTSGGTAALGCLVKDYFPEPVTVSWNSGALTSGVHTFPAVLQSSGLYSLSSVVTVPSSSLGTQTYICNVNHKPSNTKVDKKVEPKSCDKTHTCPPCPAPEWLDGPEVFLFPPKPKDTLMISRTPEVTCVVVDVEHEDPEVKFNWYVDGVEVHNAKTKPREEQYNSTYRVVSVLTVLHQDWLNGKEYKCKVSNKALPAPIEKTISKAKGQPREPQVYTLPPSREEMTKNQVSLTCLVKGFYPSDIAVEWESNGQPENNYKTTPPVLDSDGSFFLYSKLTVDKSRWQQGNVFSCSVMHEALHNHYTQKSLSLSPGK
light: B1 light
notes: HuAM4G7 IgG1 Fc variant
Take B3: the “Fold FcγRIIb” value in assay [1] came to 11.4 fold. Besides, the “Fold FcγRIIaR” value in assay [2] was 5.69 fold.

B4: L234D/G236N/S267E (antibody, human IgG1, kappa)
heavy: B3 heavy with W238D, D240N, E243S
light: B1 light
notes: HuAM4G7 IgG1 Fc variant
As for B4, the “Fold FcγRIIb” value in assay [1] is 5.11 fold. Further, the “Fold FcγRIIaR” value in assay [2] came out at 0.728 fold.

B5: L234P (antibody, human IgG1, kappa)
heavy: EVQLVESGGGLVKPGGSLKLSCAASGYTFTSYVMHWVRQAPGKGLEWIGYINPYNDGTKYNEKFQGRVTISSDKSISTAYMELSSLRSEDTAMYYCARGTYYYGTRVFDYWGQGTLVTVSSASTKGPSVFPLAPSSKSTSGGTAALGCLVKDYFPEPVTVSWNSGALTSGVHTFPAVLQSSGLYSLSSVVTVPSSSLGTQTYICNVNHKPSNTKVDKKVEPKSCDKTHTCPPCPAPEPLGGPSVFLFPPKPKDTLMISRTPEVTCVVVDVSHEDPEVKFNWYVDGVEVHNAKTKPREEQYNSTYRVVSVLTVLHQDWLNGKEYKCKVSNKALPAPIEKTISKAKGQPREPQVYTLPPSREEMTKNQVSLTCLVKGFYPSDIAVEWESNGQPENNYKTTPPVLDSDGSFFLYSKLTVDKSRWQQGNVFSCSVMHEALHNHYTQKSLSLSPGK
light: B1 light
notes: HuAM4G7 IgG1 Fc variant
On to B5, for which the “Fold FcγRIIb” value in assay [1] was determined as 0.0644 fold. Besides, the “Fold FcγRIIaR” value in assay [2] is 0.0141 fold.

B6: L234G (antibody, human IgG1, kappa)
heavy: not shown
light: B1 light
notes: HuAM4G7 IgG1 Fc variant
On to B6, for which the “Fold FcγRIIb” value in assay [1] was found to be 0.147 fold. Also, the “Fold FcγRIIaR” value in assay [2] was 0.0859 fold.

B7: S267E/N325L (antibody, human IgG1, kappa)
heavy: not shown
light: B1 light
notes: HuAM4G7 IgG1 Fc variant
Turning to B7, the “Fold FcγRIIb” value in assay [1] came to 31.5 fold. Moreover, in assay [2], the “Fold FcγRIIaR” value was determined as 41.5 fold.

B8: S298D (antibody, human IgG1, kappa)
heavy: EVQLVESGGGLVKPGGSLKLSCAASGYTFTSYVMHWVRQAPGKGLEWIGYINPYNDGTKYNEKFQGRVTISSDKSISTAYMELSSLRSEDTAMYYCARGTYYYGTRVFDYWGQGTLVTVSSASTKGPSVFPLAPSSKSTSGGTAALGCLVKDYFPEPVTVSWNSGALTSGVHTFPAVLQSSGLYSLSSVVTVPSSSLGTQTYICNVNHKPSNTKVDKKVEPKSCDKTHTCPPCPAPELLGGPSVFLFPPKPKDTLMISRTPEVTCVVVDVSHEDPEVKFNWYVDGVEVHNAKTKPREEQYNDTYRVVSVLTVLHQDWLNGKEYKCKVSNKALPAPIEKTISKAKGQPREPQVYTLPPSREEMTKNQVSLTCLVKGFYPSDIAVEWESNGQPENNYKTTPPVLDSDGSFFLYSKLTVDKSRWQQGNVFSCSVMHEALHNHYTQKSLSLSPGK
light: B1 light
notes: HuAM4G7 IgG1 Fc variant
Take B8: in assay [1], the “Fold FcγRIIb” value worked out at 0.797 fold. Moreover, the “Fold FcγRIIaR” value in assay [2] is 1.45 fold.

B9: L235H (antibody, human IgG1, kappa)
heavy: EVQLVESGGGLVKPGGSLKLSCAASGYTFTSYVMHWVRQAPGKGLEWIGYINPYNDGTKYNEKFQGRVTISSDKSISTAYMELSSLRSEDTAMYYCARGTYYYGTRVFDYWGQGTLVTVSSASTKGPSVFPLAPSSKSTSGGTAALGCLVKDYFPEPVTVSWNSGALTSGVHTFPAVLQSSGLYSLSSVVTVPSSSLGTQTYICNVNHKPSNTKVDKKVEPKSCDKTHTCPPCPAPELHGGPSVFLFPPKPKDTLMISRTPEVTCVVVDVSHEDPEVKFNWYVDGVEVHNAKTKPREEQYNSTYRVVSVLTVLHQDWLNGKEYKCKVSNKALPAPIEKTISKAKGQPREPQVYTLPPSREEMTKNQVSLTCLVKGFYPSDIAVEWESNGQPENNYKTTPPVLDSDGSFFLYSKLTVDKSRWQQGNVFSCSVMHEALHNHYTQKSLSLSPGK
light: B1 light
notes: HuAM4G7 IgG1 Fc variant
B9: in assay [1], the “Fold FcγRIIb” value amounted to 0.734 fold. Further, in assay [2], the “Fold FcγRIIaR” value stood at 0.756 fold.

B10: S267E/H268E/L328F (antibody, human IgG1, kappa)
heavy: B3 heavy with W238L, D240G, E243S, H272E, L332F
light: B1 light
notes: HuAM4G7 IgG1 Fc variant
Regarding B10, in assay [1], the “Fold FcγRIIb” value was determined as 344 fold. The “Fold FcγRIIaR” value in assay [2] stood at 253 fold. The “Fold FcγRI” value in assay [4] stood at 0.991 fold.

B11: P329E (antibody, human IgG1, kappa)
heavy: not shown
light: B1 light
notes: HuAM4G7 IgG1 Fc variant
In the case of B11, in assay [1], the “Fold FcγRIIb” value came out at 0.147 fold. Moreover, in assay [2], the “Fold FcγRIIaR” value was determined as 0.0859 fold.

B12: S239Q (antibody, human IgG1, kappa)
heavy: not shown
light: B1 light
notes: HuAM4G7 IgG1 Fc variant
With B12, the “Fold FcγRIIb” value in assay [1] stood at 0.729 fold. The “Fold FcγRIIaR” value in assay [2] was found to be 0.853 fold.

B13: G237S (antibody, human IgG1, kappa)
heavy: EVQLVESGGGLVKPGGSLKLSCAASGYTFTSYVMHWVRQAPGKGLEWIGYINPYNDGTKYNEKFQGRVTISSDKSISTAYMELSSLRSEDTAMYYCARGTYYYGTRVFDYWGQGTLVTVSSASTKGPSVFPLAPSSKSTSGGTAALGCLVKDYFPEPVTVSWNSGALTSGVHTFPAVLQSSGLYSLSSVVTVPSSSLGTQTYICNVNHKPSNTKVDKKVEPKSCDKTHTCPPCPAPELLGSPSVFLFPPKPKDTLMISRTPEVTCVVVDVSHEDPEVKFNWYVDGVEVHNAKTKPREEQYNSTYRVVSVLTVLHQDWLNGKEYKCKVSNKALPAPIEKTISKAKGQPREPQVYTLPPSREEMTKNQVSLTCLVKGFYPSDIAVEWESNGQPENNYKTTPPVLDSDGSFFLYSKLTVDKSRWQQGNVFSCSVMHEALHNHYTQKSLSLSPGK
light: B1 light
notes: HuAM4G7 IgG1 Fc variant
Take B13: the “Fold FcγRIIb” value in assay [1] was determined as 0.147 fold. In assay [2], the “Fold FcγRIIaR” value came to 0.081 fold.

B14: L234S (antibody, human IgG1, kappa)
heavy: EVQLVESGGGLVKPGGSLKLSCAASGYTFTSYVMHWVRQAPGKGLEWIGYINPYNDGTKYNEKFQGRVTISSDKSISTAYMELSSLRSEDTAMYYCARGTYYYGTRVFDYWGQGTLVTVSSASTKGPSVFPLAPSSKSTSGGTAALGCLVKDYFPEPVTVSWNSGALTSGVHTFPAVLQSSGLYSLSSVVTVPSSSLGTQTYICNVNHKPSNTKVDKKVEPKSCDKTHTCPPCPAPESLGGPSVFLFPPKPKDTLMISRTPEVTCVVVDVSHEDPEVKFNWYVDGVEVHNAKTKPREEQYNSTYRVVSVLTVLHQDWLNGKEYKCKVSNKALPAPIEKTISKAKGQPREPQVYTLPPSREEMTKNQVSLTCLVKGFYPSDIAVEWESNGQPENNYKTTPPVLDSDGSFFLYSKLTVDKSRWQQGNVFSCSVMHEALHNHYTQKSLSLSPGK
light: B1 light
notes: HuAM4G7 IgG1 Fc variant
Regarding B14, in assay [1], the “Fold FcγRIIb” value amounted to 0.192 fold. In assay [2], the “Fold FcγRIIaR” value worked out at 0.693 fold.

B15: S267E/L328I (antibody, human IgG1, kappa)
heavy: not shown
light: B1 light
notes: HuAM4G7 IgG1 Fc variant
For B15, the “Fold FcγRIIb” value in assay [1] was determined as 53.4 fold. In addition, the “Fold FcγRIIaR” value in assay [2] is 74 fold.

B16: G237Y (antibody, human IgG1, kappa)
heavy: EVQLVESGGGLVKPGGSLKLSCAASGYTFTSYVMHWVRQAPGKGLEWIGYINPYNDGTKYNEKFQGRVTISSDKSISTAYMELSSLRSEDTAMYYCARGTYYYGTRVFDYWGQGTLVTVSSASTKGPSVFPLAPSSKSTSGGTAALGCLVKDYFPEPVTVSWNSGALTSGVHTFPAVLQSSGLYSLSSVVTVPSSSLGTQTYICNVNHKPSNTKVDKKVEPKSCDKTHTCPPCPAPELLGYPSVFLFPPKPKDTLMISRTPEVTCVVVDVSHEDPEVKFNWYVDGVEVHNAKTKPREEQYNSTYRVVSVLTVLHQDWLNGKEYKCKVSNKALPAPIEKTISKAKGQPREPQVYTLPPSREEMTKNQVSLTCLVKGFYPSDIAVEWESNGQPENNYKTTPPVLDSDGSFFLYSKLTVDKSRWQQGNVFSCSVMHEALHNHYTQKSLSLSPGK
light: B1 light
notes: HuAM4G7 IgG1 Fc variant
For the molecule B16, the “Fold FcγRIIb” value in assay [1] worked out at 0.33 fold. The “Fold FcγRIIaR” value in assay [2] was 0.902 fold.

B17: S267E/L328H (antibody, human IgG1, kappa)
heavy: not shown
light: B1 light
notes: HuAM4G7 IgG1 Fc variant
For the molecule B17, the “Fold FcγRIIb” value in assay [1] is 5.17 fold. Besides, the “Fold FcγRIIaR” value in assay [2] stood at 4.64 fold.

B18: S267E/A327D (antibody, human IgG1, kappa)
heavy: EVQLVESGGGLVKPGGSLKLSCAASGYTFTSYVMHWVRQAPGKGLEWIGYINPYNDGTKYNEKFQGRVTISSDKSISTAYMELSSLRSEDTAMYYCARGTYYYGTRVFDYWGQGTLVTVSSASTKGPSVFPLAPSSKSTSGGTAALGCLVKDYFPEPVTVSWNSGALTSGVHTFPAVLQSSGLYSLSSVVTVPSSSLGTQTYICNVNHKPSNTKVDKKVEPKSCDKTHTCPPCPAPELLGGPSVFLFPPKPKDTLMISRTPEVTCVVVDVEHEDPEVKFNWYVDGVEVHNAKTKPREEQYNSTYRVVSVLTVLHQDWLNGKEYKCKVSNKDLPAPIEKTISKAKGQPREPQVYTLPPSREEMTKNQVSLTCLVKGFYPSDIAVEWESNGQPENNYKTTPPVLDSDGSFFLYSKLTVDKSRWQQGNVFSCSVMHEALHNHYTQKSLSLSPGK
light: B1 light
notes: HuAM4G7 IgG1 Fc variant
In the case of B18, the “Fold FcγRIIb” value in assay [1] amounted to 21.2 fold. The “Fold FcγRIIaR” value in assay [2] stood at 16.7 fold. The “Fold FcγRI” value in assay [4] amounted to 1.66 fold.

B19: S239N (antibody, human IgG1, kappa)
heavy: not shown
light: B1 light
notes: HuAM4G7 IgG1 Fc variant
In the case of B19, the “Fold FcγRIIb” value in assay [1] stood at 1.45 fold. The “Fold FcγRIIaR” value in assay [2] came out at 0.867 fold.

B20: L235R (antibody, human IgG1, kappa)
heavy: not shown
light: B1 light
notes: HuAM4G7 IgG1 Fc variant
As to B20, the “Fold FcγRIIb” value in assay [1] was 5.58 fold. Also, in assay [2], the “Fold FcγRIIaR” value is 1.02 fold.

B21: L234V (antibody, human IgG1, kappa)
heavy: not shown
light: B1 light
notes: HuAM4G7 IgG1 Fc variant
Turning to B21, in assay [1], the “Fold FcγRIIb” value was 0.456 fold. In addition, the “Fold FcγRIIaR” value in assay [2] worked out at 0.134 fold.

B22: L234I (antibody, human IgG1, kappa)
heavy: not shown
light: B1 light
notes: HuAM4G7 IgG1 Fc variant
For B22, the “Fold FcγRIIb” value in assay [1] was 0.108 fold. Besides, the “Fold FcγRIIaR” value in assay [2] turned out to be 0.0554 fold.

B23: G237V (antibody, human IgG1, kappa)
heavy: not shown
light: B1 light
notes: HuAM4G7 IgG1 Fc variant
Regarding B23, the “Fold FcγRIIb” value in assay [1] is 0.147 fold. Moreover, in assay [2], the “Fold FcγRIIaR” value was 0.0342 fold.

B24: L234Q (antibody, human IgG1, kappa)
heavy: not shown
light: B1 light
notes: HuAM4G7 IgG1 Fc variant
Take B24: the “Fold FcγRIIb” value in assay [1] came out at 0.147 fold. The “Fold FcγRIIaR” value in assay [2] was 0.0372 fold.

B25: V266D (antibody, human IgG1, kappa)
heavy: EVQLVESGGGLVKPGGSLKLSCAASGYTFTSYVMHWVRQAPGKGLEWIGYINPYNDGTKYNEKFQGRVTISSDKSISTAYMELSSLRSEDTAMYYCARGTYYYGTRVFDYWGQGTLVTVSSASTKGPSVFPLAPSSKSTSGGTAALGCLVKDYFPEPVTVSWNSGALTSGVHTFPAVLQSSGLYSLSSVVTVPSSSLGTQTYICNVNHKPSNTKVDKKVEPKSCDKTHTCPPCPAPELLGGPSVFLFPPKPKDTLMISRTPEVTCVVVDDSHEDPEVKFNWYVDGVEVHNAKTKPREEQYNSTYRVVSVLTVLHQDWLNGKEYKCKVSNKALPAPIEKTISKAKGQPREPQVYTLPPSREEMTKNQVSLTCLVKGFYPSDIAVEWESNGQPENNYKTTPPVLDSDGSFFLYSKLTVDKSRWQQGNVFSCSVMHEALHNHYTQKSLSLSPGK
light: B1 light
notes: HuAM4G7 IgG1 Fc variant
On to B25, for which the “Fold FcγRIIb” value in assay [1] came out at 0.147 fold. The “Fold FcγRIIaR” value in assay [2] was found to be 0.704 fold.

B26: L234W/S239E/S267E (antibody, human IgG1, kappa)
heavy: B3 heavy with D240G
light: B1 light
notes: HuAM4G7 IgG1 Fc variant
For B26, in assay [1], the “Fold FcγRIIb” value was found to be 42.3 fold. For the same molecule, the “Fold FcγRIIaR” value in assay [2] stood at 98.5 fold.

B27: L235E (antibody, human IgG1, kappa)
heavy: not shown
light: B1 light
notes: HuAM4G7 IgG1 Fc variant
With B27, the “Fold FcγRIIb” value in assay [1] is 0.55 fold. Also, the “Fold FcγRIIaR” value in assay [2] was determined as 0.333 fold.

B28: L234Y (antibody, human IgG1, kappa)
heavy: not shown
light: B1 light
notes: HuAM4G7 IgG1 Fc variant
Regarding B28, the “Fold FcγRIIb” value in assay [1] was 0.0237 fold. Further, the “Fold FcγRIIaR” value in assay [2] was found to be 0.0511 fold.

B29: L234D/S267E (antibody, human IgG1, kappa)
heavy: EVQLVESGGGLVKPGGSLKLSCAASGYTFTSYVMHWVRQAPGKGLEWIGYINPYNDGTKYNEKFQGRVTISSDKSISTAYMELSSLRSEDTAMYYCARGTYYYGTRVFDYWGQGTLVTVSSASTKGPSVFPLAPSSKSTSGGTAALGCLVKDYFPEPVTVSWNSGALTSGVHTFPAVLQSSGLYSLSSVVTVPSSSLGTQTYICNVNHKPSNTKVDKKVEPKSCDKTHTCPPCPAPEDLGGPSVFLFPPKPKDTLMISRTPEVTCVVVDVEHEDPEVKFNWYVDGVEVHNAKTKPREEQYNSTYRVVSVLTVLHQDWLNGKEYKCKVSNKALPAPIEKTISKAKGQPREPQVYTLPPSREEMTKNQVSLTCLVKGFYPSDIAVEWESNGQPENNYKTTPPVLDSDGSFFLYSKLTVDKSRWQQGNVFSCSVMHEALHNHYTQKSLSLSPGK
light: B1 light
notes: HuAM4G7 IgG1 Fc variant
Regarding B29, the “Fold FcγRIIb” value in assay [1] came out at 21.7 fold. Further, the “Fold FcγRIIaR” value in assay [2] was 12.7 fold. In addition, the “Fold FcγRIIIaV” value in assay [3] stood at 0.14 fold. Moreover, the “Fold FcγRI” value in assay [4] turned out to be 0.0286 fold.

B30: L235T/S267E (antibody, human IgG1, kappa)
heavy: not shown
light: B1 light
notes: HuAM4G7 IgG1 Fc variant
As for B30, the “Fold FcγRIIb” value in assay [1] was 2.37 fold. Further, the “Fold FcγRIIaR” value in assay [2] is 3.06 fold.

Values taken from US20170355766A1 (Xencor, published 2017).
